According to paper PMC3585263, “A Novel Ion Channel Formed by Interaction of TRPML3 with TRPV5” (PLoS ONE, 2013):
Values belong to the molecule of their own block, whether it stands above or below them.

Assays:
[1] = target: TRPML3 (not stated (human or mouse cDNA cloned)) (UniProt Q8R4F0); assay: FRET or BRET; acceptor photobleaching FRET in transiently transfected HEK293 cells; C-terminal CFP and YFP fusions; FRET efficiency from the recovery of CFP fluorescence during YFP photobleaching
[2] = target: TRPV5 (mouse) (UniProt P69744)
[3] = target: TRPV5 (mouse) (UniProt P69744); remark: listed apart in the source
[4] = target: T1, TRPML3 ( (human or mouse cDNA cloned), UniProt Q8R4F0 1-553); assay: FRET or BRET; acceptor photobleaching FRET in transiently transfected HEK293 cells; C-terminal CFP and YFP fusions; FRET efficiency from the recovery of CFP fluorescence during YFP photobleaching; conditions: partners not purified
T1 construct: TRPML3 cation channel; pcDNA3.1 plasmids held full-length mouse TRPML3 (NM_134160) and human TRPML3 (NM_018298); 'full-length' is printed for the mouse cDNA; Stood as CFP fusion and as YFP fusion in the FRET pairs; also called mucolipin 3; source: HEK293, transiently transfected, in cells; not shown: YFP or CFP, C-terminal, kept
T1 sequence (looked up): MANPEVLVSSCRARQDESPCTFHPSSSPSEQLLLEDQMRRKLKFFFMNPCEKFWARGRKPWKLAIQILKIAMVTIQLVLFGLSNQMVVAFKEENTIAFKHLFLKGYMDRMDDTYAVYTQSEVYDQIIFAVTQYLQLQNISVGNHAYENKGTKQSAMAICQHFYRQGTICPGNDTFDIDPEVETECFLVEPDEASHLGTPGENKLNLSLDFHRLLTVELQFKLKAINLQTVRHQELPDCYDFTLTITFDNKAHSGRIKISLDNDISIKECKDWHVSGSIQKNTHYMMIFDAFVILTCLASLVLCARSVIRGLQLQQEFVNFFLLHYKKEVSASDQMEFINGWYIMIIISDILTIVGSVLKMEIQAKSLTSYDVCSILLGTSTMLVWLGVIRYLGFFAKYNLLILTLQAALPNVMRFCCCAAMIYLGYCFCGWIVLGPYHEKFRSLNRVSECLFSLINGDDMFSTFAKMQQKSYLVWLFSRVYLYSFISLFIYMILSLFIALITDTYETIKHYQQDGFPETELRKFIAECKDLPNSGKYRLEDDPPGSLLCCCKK

Sequence of TRPV5 (mouse) (P69744 whole entry, the tested form may be a part): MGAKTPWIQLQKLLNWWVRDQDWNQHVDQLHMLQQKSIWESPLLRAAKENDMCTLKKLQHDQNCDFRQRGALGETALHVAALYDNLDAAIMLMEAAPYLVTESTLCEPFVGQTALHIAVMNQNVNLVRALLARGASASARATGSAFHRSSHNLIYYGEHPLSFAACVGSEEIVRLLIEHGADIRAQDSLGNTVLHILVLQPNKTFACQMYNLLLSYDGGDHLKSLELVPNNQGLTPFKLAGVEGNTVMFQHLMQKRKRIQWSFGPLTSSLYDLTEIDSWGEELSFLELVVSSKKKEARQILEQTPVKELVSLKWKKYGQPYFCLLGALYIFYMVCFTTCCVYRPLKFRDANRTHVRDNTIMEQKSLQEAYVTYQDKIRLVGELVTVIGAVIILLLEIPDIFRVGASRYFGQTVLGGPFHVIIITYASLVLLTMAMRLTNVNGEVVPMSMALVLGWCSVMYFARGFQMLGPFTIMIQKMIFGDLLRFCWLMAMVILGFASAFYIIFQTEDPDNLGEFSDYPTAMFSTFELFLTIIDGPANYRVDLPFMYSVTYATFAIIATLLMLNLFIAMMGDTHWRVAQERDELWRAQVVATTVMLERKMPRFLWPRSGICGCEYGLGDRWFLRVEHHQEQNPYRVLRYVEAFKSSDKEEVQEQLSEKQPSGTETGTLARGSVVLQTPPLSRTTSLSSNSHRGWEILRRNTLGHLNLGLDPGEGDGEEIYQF

FRET efficiency [1]: < 5%
Molecule: YFP alone

whole-cell current density of the novel current at −150 mV in standard bath solution (condition 1), HEK293 cells cotransfected with TRPV5 and TRPML3 [2]: -0.129 nA/pF
average open time, single channels of cotransfected HEK293 cells, first type of current, condition 1 [3]: 0.4 ms
average open time, single channels of cotransfected HEK293 cells, second type of current, condition 1 [3]: 0.16 ms
average open time, single channels of cotransfected HEK293 cells, second type of current, condition 2 [3]: 0.17 ms
mean open time, single channels of cotransfected HEK293 cells, first type of current, condition 2 [3]: 5.98 ms
single channel conductance at −150 mV, outside-out patches of cotransfected HEK293 cells, first type of current, condition 1 [3]: 32.3 pS
single channel conductance, cotransfected HEK293 cells, first type of current, condition 2 [3]: 33.4 pS
single channel conductance, cotransfected HEK293 cells, second type of current, condition 1 [3]: 34.6 pS
single channel conductance, cotransfected HEK293 cells, second type of current, condition 2 [3]: 46.7 pS
B1: TRPML3 (natural protein)
chain: T1 sequence (looked up)

FRET efficiency [4]: < 5%
B2: TRPV2 (natural protein, UniProt Q9Y5S1 1-764, looked up)
chain: MTSPSSSPVFRLETLDGGQEDGSEADRGKLDFGSGLPPMESQFQGEDRKFAPQIRVNLNYRKGTGASQPDPNRFDRDRLFNAVSRGVPEDLAGLPEYLSKTSKYLTDSEYTEGSTGKTCLMKAVLNLKDGVNACILPLLQIDRDSGNPQPLVNAQCTDDYYRGHSALHIAIEKRSLQCVKLLVENGANVHARACGRFFQKGQGTCFYFGELPLSLAACTKQWDVVSYLLENPHQPASLQATDSQGNTVLHALVMISDNSAENIALVTSMYDGLLQAGARLCPTVQLEDIRNLQDLTPLKLAAKEGKIEIFRHILQREFSGLSHLSRKFTEWCYGPVRVSLYDLASVDSCEENSVLEIIAFHCKSPHRHRMVVLEPLNKLLQAKWDLLIPKFFLNFLCNLIYMFIFTAVAYHQPTLKKQAAPHLKAEVGNSMLLTGHILILLGGIYLLVGQLWYFWRRHVFIWISFIDSYFEILFLFQALLTVVSQVLCFLAIEWYLPLLVSALVLGWLNLLYYTRGFQHTGIYSVMIQKVILRDLLRFLLIYLVFLFGFAVALVSLSQEAWRPEAPTGPNATESVQPMEGQEDEGNGAQYRGILEASLELFKFTIGMGELAFQEQLHFRGMVLLLLLAYVLLTYILLLNMLIALMSETVNSVATDSWSIWKLQKAISVLEMENGYWWCRKKQRAGVMLTVGTKPDGSPDERWCFRVEEVNWASWEQTLPTLCEDPSGAGVPRTLENPVLASPPKEDEDGASEENYVPVQLLQSN
notes: TRPV2 cation channel; construct and species not described; source: HEK293, transiently transfected, in cells; not shown: YFP or CFP, C-terminal, kept

Second part, the molecule before the results:

B3: TRPA1 (natural protein, UniProt O75762 1-1119, looked up)
chain: MKRSLRKMWRPGEKKEPQGVVYEDVPDDTEDFKESLKVVFEGSAYGLQNFNKQKKLKRCDDMDTFFLHYAAAEGQIELMEKITRDSSLEVLHEMDDYGNTPLHCAVEKNQIESVKFLLSRGANPNLRNFNMMAPLHIAVQGMNNEVMKVLLEHRTIDVNLEGENGNTAVIIACTTNNSEALQILLKKGAKPCKSNKWGCFPIHQAAFSGSKECMEIILRFGEEHGYSRQLHINFMNNGKATPLHLAVQNGDLEMIKMCLDNGAQIDPVEKGRCTAIHFAATQGATEIVKLMISSYSGSVDIVNTTDGCHETMLHRASLFDHHELADYLISVGADINKIDSEGRSPLILATASASWNIVNLLLSKGAQVDIKDNFGRNFLHLTVQQPYGLKNLRPEFMQMQQIKELVMDEDNDGCTPLHYACRQGGPGSVNNLLGFNVSIHSKSKDKKSPLHFAASYGRINTCQRLLQDISDTRLLNEGDLHGMTPLHLAAKNGHDKVVQLLLKKGALFLSDHNGWTALHHASMGGYTQTMKVILDTNLKCTDRLDEDGNTALHFAAREGHAKAVALLLSHNADIVLNKQQASFLHLALHNKRKEVVLTIIRSKRWDECLKIFSHNSPGNKCPITEMIEYLPECMKVLLDFCMLHSTEDKSCRDYYIEYNFKYLQCPLEFTKKTPTQDVIYEPLTALNAMVQNNRIELLNHPVCKEYLLMKWLAYGFRAHMMNLGSYCLGLIPMTILVVNIKPGMAFNSTGIINETSDHSEILDTTNSYLIKTCMILVFLSSIFGYCKEAGQIFQQKRNYFMDISNVLEWIIYTTGIIFVLPLFVEIPAHLQWQCGAIAVYFYWMNFLLYLQRFENCGIFIVMLEVILKTLLRSTVVFIFLLLAFGLSFYILLNLQDPFSSPLLSIIQTFSMMLGDINYRESFLEPYLRNELAHPVLSFAQLVSFTIFVPIVLMNLLIGLAVGDIAEVQKHASLKRIAMQVELHTSLEKKLPLWFLRKVDQKSTIVYPNKPRSGGMLFHIFCFLFCTGEIRQEIPNADKSLEMEILKQKYRLKDLTFLLEKQHELIKLIIQKMEIISETEDDDSHCSFQDRFKKEQMEQRNSRWNTVLRAVKAKTHHLEP
notes: TRPA1 cation channel; construct and species not described; source: HEK293, transiently transfected, in cells; not shown: YFP or CFP, C-terminal, kept
FRET efficiency [4]: < 5%

B4: TRPC6 (natural protein, UniProt Q9Y210 1-931, looked up)
chain: MSQSPAFGPRRGSSPRGAAGAAARRNESQDYLLMDSELGEDGCPQAPLPCYGYYPCFRGSDNRLAHRRQTVLREKGRRLANRGPAYMFSDRSTSLSIEEERFLDAAEYGNIPVVRKMLEECHSLNVNCVDYMGQNALQLAVANEHLEITELLLKKENLSRVGDALLLAISKGYVRIVEAILSHPAFAEGKRLATSPSQSELQQDDFYAYDEDGTRFSHDVTPIILAAHCQEYEIVHTLLRKGARIERPHDYFCKCNDCNQKQKHDSFSHSRSRINAYKGLASPAYLSLSSEDPVMTALELSNELAVLANIEKEFKNDYKKLSMQCKDFVVGLLDLCRNTEEVEAILNGDVETLQSGDHGRPNLSRLKLAIKYEVKKFVAHPNCQQQLLSIWYENLSGLRQQTMAVKFLVVLAVAIGLPFLALIYWFAPCSKMGKIMRGPFMKFVAHAASFTIFLGLLVMNAADRFEGTKLLPNETSTDNAKQLFRMKTSCFSWMEMLIISWVIGMIWAECKEIWTQGPKEYLFELWNMLDFGMLAIFAASFIARFMAFWHASKAQSIIDANDTLKDLTKVTLGDNVKYYNLARIKWDPSDPQIISEGLYAIAVVLSFSRIAYILPANESFGPLQISLGRTVKDIFKFMVIFIMVFVAFMIGMFNLYSYYIGAKQNEAFTTVEESFKTLFWAIFGLSEVKSVVINYNHKFIENIGYVLYGVYNVTMVIVLLNMLIAMINSSFQEIEDDADVEWKFARAKLWFSYFEEGRTLPVPFNLVPSPKSLFYLLLKLKKWISELFQGHKKGFQEDAEMNKINEEKKLGILGSHEDLSKLSLDKKQVGHNKQPSIRSSEDFHLNSFNNPPRQYQKIMKRLIKRYVLQAQIDKESDEVNEGELKEIKQDISSLRYELLEEKSQNTEDLAELIRELGEKLSMEPNQEETNR
notes: TRPC6 cation channel; construct and species not described; source: HEK293, transiently transfected, in cells; not shown: YFP or CFP, C-terminal, kept
FRET efficiency [4]: < 5%

B5: PKD2 (natural protein, UniProt Q13563 1-968, looked up)
chain: MVNSSRVQPQQPGDAKRPPAPRAPDPGRLMAGCAAVGASLAAPGGLCEQRGLEIEMQRIRQAAARDPPAGAAASPSPPLSSCSRQAWSRDNPGFEAEEEEEEVEGEEGGMVVEMDVEWRPGSRRSAASSAVSSVGARSRGLGGYHGAGHPSGRRRRREDQGPPCPSPVGGGDPLHRHLPLEGQPPRVAWAERLVRGLRGLWGTRLMEESSTNREKYLKSVLRELVTYLLFLIVLCILTYGMMSSNVYYYTRMMSQLFLDTPVSKTEKTNFKTLSSMEDFWKFTEGSLLDGLYWKMQPSNQTEADNRSFIFYENLLLGVPRIRQLRVRNGSCSIPQDLRDEIKECYDVYSVSSEDRAPFGPRNGTAWIYTSEKDLNGSSHWGIIATYSGAGYYLDLSRTREETAAQVASLKKNVWLDRGTRATFIDFSVYNANINLFCVVRLLVEFPATGGVIPSWQFQPLKLIRYVTTFDFFLAACEIIFCFFIFYYVVEEILEIRIHKLHYFRSFWNCLDVVIVVLSVVAIGINIYRTSNVEVLLQFLEDQNTFPNFEHLAYWQIQFNNIAAVTVFFVWIKLFKFINFNRTMSQLSTTMSRCAKDLFGFAIMFFIIFLAYAQLAYLVFGTQVDDFSTFQECIFTQFRIILGDINFAEIEEANRVLGPIYFTTFVFFMFFILLNMFLAIINDTYSEVKSDLAQQKAEMELSDLIRKGYHKALVKLKLKKNTVDDISESLRQGGGKLNFDELRQDLKGKGHTDAEIEAIFTKYDQDGDQELTEHEHQQMRDDLEKEREDLDLDHSSLPRPMSSRSFPRSLDDSEEDDDEDSGHSSRRRGSISSGVSYEEFQVLVRRVDRMEHSIGSIVSKIDAVIVKLEIMERAKLKRREVLGRLLDGVAEDERLGRDSEIHREQMERLVREELERWESDDAASQISHGLGTPVGLNGQPRPRSSRPSSSQSTEGMEGAGGNGSSNVHV
notes: PKD2 (TRPP2) cation channel; construct and species not described; also called TRPP2; source: HEK293, transiently transfected, in cells; not shown: YFP or CFP, C-terminal, kept
FRET efficiency [4]: < 5%
